These results are taken from patent US7977317B2, “Compositions and methods for modulating blood-brain barrier transport” (Raptor Pharmaceutical Inc., priority 2001, dated 2011).

Experiment [1] has as its system BBCEC monolayers. As to the kind of experiment: Accumulation of ligands in BBCEC monolayers. The class given is cell-based, bovine. Particulars: native proteins (FIG. 13c). On the procedure: FIG. 7 illustrates the results of experiments where the ligands p97, Lf and Tf were heated or not heated prior to the binding study. In all cases, binding experiments were conducted in the transwell apparatus as described previously, with the exception that binding was conducted at either 4° C. or at 37° C. For the 37° C. trial, a separate experiment was conducted where the ligand was boiled for 30 mins then rapidly cooled prior to administration on the transwell plates.
(§1) FIG. 13 illustrates the transcytosis and accumulation of p97 and transferrin in BBCEC monolayers. FIG. 13a, Transcytosis experiments were performed at 37° C. (solid bars) or 4° C. (white bars). [^125I]-p97 or bovine [^125I]-holo-transferrin (1 mg/ml) was added to the upper side of the cell-covered filter. At the end of the experiment, radiolabelled proteins were measured in the lower chamber of each well by TCA precipitation (n=4). Controls were also performed at 37° C. with denatured [^125I]-p97 or bovine [^125I]-holo-transferrin boiled for 30 min (grey bars) (n=2); FIG. 13b, Biospecific interaction analysis was performed with native or boiled p97 for the indicated times. MAb L235 (5 μg) was immobilized on a sensor chip (SM5) using standard procedures incorporating NHS, EDC and ethanolamine. Native and boiled p97 (5 to 30 min) diluted at 1 mg/ml in Ringer/Hepes was cooled and injected into the BIAcore. The surface plasmon resonance response obtained for native p97 and boiled p97 was plotted (in relative units (RU)) as a function of time; FIG. 13c, The accumulation of both proteins into BBEC cells were also measured. Briefly, after incubation at 37° C. (solid bars) or 4° C. (white bars) with either [^125I]-protein, cells were washed four times with cold PBS. Accumulation of both denatured proteins (grey bars) was also measured at 37° C. Filters were then removed, and the radioactivity associated with the cells was quantified (n=3).
In all cases, binding experiments were conducted in the transwell apparatus as described previously, with the exception that binding was conducted at either 4° C. or at 37° C. For the 37° C. trial, a separate experiment was conducted where the ligand was boiled for 30 mins then rapidly cooled prior to administration on the transwell plates.

Experiment [2] has as its system BBCEC monolayers. As to the kind of experiment: Transcytosis across BBCEC monolayers (in vitro BBB model). Particulars: 200-fold molar excess of competitor, [125I]-p97 25 nM (FIG. 15a, 15b). Type of experiment: cell-based, bovine.
Text: FIG. 10 assesses the ability of several agents to interfere with p97 transyctosis. FIG. 10a, transcytosis of I125-P97 was compared in the presence of cold p97 (5 micromolar), Lf (5 micromolar), and Tf (5 micromolar). […] FIG. 10c, RAP, a known poly-peptide inhibitor of the LDL-Receptor family was applied to the cells (25 micrograms/ml).
FIG. 11 examines the accumulation and transcytosis of p97. FIG. 11a, of [^125I]-p97, [^125I]-BSA and [^125I]-holo-transferrin one hour after i.v. injection. The radioactivity in brain was compared between the three compounds. (n=3); FIG. 11b, Accumulation of p97 and transferrin into the mouse brain parenchyma. In situ brain perfusion was performed with human [^125I]-p97 or [^125I]-holo-transferrin at a final concentration of 10 nM via a catheter inserted in the right common carotid artery. The volume of distribution (VD) of [^125I]-proteins were obtained in the whole brain homogenate (white bars), in brain capillaries (solid bars) and in brain parenchyma (hatched bars) after isolation of the right hemisphere and capillary depletion. Results were obtained for p97 (n=10) and for holo-transferrin (n=6); FIG. 11c, Transcytosis of p97 across BBCEC monolayers. Transcytosis experiments were performed 37° C. (open circles) and 4° C. (closed circles) with BBCEC monolayers. [^125I]-p97 (1 mg/ml) was added to the upper side of the cell-covered filter. One representative experiment is shown (n=4); FIG. 11d, Preferential transport of p97 across the BBCEC monolayers. Apical-to-basal and basal-to-apical transport of [^125I]-p97 (25 nM) was measured for 2 hrs at 37° C. At the end of the experiment, [^125I]-p97 was assessed in the lower or upper chambers of each well by TCA precipitation (n=4).
as §1
FIG. 14 illustrates the stability of p97 and integrity of the BBCEC monolayers following p97 transcytosis. FIG. 14a, Transcytosis experiments were performed at 37° C. and 4° C. by adding p97 (1 mg/ml) to the upper compartment. At the end of the experiment, 50 μl from each lower chamber was used for SDS-polyacrylamide gel electrophoresis. After electrophoresis, the gels were stained with Coomassie Blue. A standard curve was also made with known amounts of recombinant p97 (0-2 μg); FIG. 14b. The gels were dried and scanned to quantify the amount of intact p97 that crossed the BBCEC monolayers at 37° C. and 4° C. (n=3); FIG. 14c, Effect of p97 on sucrose permeability of BBCE cell monolayers co-cultured with astrocytes. […]

B1: bovine holo-transferrin: bovine holo-transferrin (protein, UniProt Q29443 20-704, looked up)
Serotransferrin: DPERTVRWCTISTHEANKCASFRENVLRILESGPFVSCVKKTSHMDCIKAISNNEADAVTLDGGLVYEAGLKPNNLKPVVAEFHGTKDNPQTHYYAVAVVKKDTDFKLNELRGKKSCHTGLGRSAGWNIPMAKLYKELPDPQESIQRAAANFFSASCVPCADQSSFPKLCQLCAGKGTDKCACSNHEPYFGYSGAFKCLMEGAGDVAFVKHSTVFDNLPNPEDRKNYELLCGDNTRKSVDDYQECYLAMVPSHAVVARTVGGKEDVIWELLNHAQEHFGKDKPDNFQLFQSPHGKDLLFKDSADGFLKIPSKMDFELYLGYEYVTALQNLRESKPPDSSKDECMVKWCAIGHQERTKCDRWSGFSGGAIECETAENTEECIAKIMKGEADAMSLDGGYLYIAGKCGLVPVLAENYKTEGESCKNTPEKGYLAVAVVKTSDANINWNNLKDKKSCHTAVDRTAGWNIPMGLLYSKINNCKFDEFFSAGCAPGSPRNSSLCALCIGSEKGTGKECVPNSNERYYGYTGAFRCLVEKGDVAFVKDQTVIQNTDGNNNEAWAKNLKKENFEVLCKDGTRKPVTDAENCHLARGPNHAVVSRKDKATCVEKILNKQQDDFGKSVTDCTSNFCLFQSNSKDLLFRDDTKCLASIAKKTYDSYLGDDYVRAMTNLRQCSTSKLLEACTFHKP
modifications: iron-loaded (holo)
For the molecule B1, the “Accumulation in BBCE cells” value with BBCEC monolayers [1] is “no significant accumulation”. Further, the “Reduction of apical-to-basal transport of [125I]-p97” value with BBCEC monolayers [2] was “had no impact”.
